Laboratory results published in US11926665B2, “Methods of treating cancer with anti-TIM-3 antibodies” (TESARO, INC., priority 2017, dated 2024).

Legend:
PARP activity = conditions: various cell lines, DNA damage by hydrogen peroxide, cited from earlier work
[1] = Phase 1 dose escalation, safety and tolerability; format: in vivo
Method: The study comprises several parts: dose escalation and cohort expansion. Part 1a of the study (dose escalation) is intended, inter alia, to evaluate the safety, PK, and PDy profile, tolerability and anti-cancer effect of the anti-TIM-3 antibody. […] Part 1a could also comprise the testing of a “flat” dose, or a specific fixed number of milligrams of antibody (as opposed to the weight based dosing mg/kg). Flat doses could range from 200 mg to 1500 mg of anti-TIM-3 antibody. Part 1b of the study (combination with PD1 dose escalation cohorts) is intended, inter alia, to evaluate the safety, PK, and PDy profile, tolerability and anti-cancer effect of the anti-TIM-3 antibody in combination with an anti-PD-1 antibody wherein the anti-TIM-3 antibody is administered as a dose escalation. […] The anti-PD-1 antibody can be dosed at an approved dose and schedule for a marketed agent and on a weight basis at a dose of 3 or 10 mg/kg Q2W or Q3W or on a flat dose basis of 500 mg antibody Q2W or Q3W by using a modified 3+3 design.
Primary endpoints include determining the safety and tolerability of TSR-022 by Common Terminology Criteria for Adverse Events (CTCAE v4) and to determine the recommended phase 2 dose (RP2D) and schedule for monotherapy and combination with an anti-PD-1 antibody. […]

[2] = system: advanced or metastatic solid tumors; assay: Phase 1 dose escalation, best tumor response; format: in vivo, human
Source text: (§1) This example describes a multicenter, open-label, first-in-human Phase 1 study evaluating a TIM-3 binding agent (an anti-TIM-3 antibody), in patients with tumors. Specifically the dosage effects in patients with advanced solid tumors treated with a particular TIM-3 binding agent. A TIM-3 binding agent (TSR-022) as described in the present study comprises a humanized monoclonal anti-TIM-3 antibody comprising a heavy chain whose amino acid sequence comprises SEQ ID NO: 3 and a light chain whose amino acid sequence comprises SEQ ID NO:4 are evaluated. This anti-TIM-3 antibody utilizes a human IGHG4*01 heavy chain gene, and a human IGKC*01 kappa light chain gene, as scaffolds. Further, there is a single Ser to Pro point mutation in the hinge region of the IgG4 heavy chain at the canonical S228 position.
Patients were included with histologically or cytologically proven advanced (unresectable) or metastatic solid tumor and who had disease progression after treatment with available therapies that are known to confer clinical benefit or who are intolerant to other known treatment(s).
The study comprises several parts: dose escalation and cohort expansion. Part 1a of the study (dose escalation) is intended, inter alia, to evaluate the safety, PK, and PDy profile, tolerability and anti-cancer effect of the anti-TIM-3 antibody. A modified 3+3 design was used for dose escalation at 0.03 mg/kg, 0.1 mg/kg, 0.3 mg/kg, 1.0 mg/kg, 3 mg/kg, and 10 mg/kg and higher every 2 weeks (Q2W) with the dose of the TIM-3 antibody not to exceed 20 mg/kg. […]
The best response observed was also evaluated in efficacy evaluable patients (e.g., patients who received at least two doses and either had at least one post-baseline assessment or had discontinued treatment due to clinical progression prior to post-baseline tumor assessment. Stable disease (5/25 patients) and partial response (1/25 patients at 10 mg/kg) were observed as the best response in patients with rectal, thyroid, neuroendocrine, or head and neck cancer, or with soft tissue sarcoma.

[3] = Phase 1 study, serum pharmacokinetics after first dose; format: in vivo; conditions: patients, first dose 0.03-10 mg/kg, monitored for two weeks, FIG. 6A
Source text: as §1
The study comprises several parts: dose escalation and cohort expansion. Part 1a of the study (dose escalation) is intended, inter alia, to evaluate the safety, PK, and PDy profile, tolerability and anti-cancer effect of the anti-TIM-3 antibody. […]
After patients received the first dose of TSR-022 at various levels (0.03-10 mg/kg), the TSR-022 concentration in serum was monitored for two weeks and the pharmacokinetic (PK) behaviors were characterized.

TIM-3 = target: T1, TIM-3 (Homo sapiens, UniProt Q8TDQ0); assay: TIM-3 receptor occupancy on circulating CD14+ monocytes by flow cytometry; format: in vivo
T1 construct: endogenous in cells; host or cells: circulating CD14+ monocytes in patients' whole blood
Method: TIM-3 receptor occupancy (RO) by TSR-022 on circulating CD14^+ monocytes was measured by flow cytometry. Briefly, whole blood samples from patients treated with TSR-022 were stained with anti-CD14, a non-competing anti-TIM-3 antibody (indicating total TIM-3) and a competing anti-TIM-3 antibody (indicating unbound or free TIM-3). TIM-3 occupancy by infused TSR-022 was estimated as the ratio of free TIM-3 on CD14+ cells to the total TIM-3 on CD14+ cells. A decrease in the ratio indicates an increase in TSR-022 bound TIM-3 receptor. To measure binding in the RO assay, whole blood was collected from patients at baseline (Day 1 predose), 48 hours following the first dose (Day 3) and prior to the second dose (Day 15 predose) for the Q2W schedule. […] Samples for occupancy measurement on the Q3W schedule were collected as follows: Day 1 predose, Day 5, Day 15 and Day 22. Ex vivo TSR-022 saturated healthy donor samples (“sat”) as well as controls lacking detection antibodies (“Bkgd”) were included as controls.
FIGS. 7A-7C respectively show receptor occupancy studies of the anti-TIM-3 antibody (TSR-022) administered at doses of 1 mg/kg (FIG. 7A), 3 mg/kg (FIG. 7B), and 10 mg/kg (FIG. 7C) every two weeks (Q2W). All samples were pre-dose, with occupancy measured after a single dose on day 1. The occupancy ratio (free TIM-3:total TIM-3) is determined at various time points (for example, timepoints can include day 1, day 3, day 15, day 22, and day 29). The receptor occupancy is maximal on day 3 across doses of TSR-022.

Row | Compound | IC50 (PARP activity; read-out: IC50, PARP activity in cells) | IC90 (PARP activity; read-out: inhibitory concentration at 90% of control (IC90), PARP activity in cells) | MTD ([1]; dose escalation continued to 1.0 mg/kg Q2W) | tolerability ([1]; monotherapy, patients) | stable disease as best response ([2]; efficacy evaluable patients, monotherapy Part 1a, 0.03-10 mg/kg Q2W) | partial response as best response ([2]; efficacy evaluable patients, monotherapy, at 10 mg/kg) | tumor reduction ([2]; one patient with metastatic leiomyosarcoma, 3 doses at 10 mg/kg, pending confirmatory imaging) | PK behavior, serum concentration versus time [3] | day through which maximal occupancy is maintained (TIM-3; 3 mg/kg, single dose on day 1, FIG. 7B) | maintenance of maximal occupancy (TIM-3; 10 mg/kg, through the days of available data, versus 3 mg/kg, FIG. 7C) | receptor occupancy compared between regimens (TIM-3; 100 mg Q3W versus 3 mg/kg Q2W) | target coverage in the periphery (receptor occupancy) (TIM-3; 100 mg flat dose Q3W, single dose on day 1, FIG. 10) | receptor occupancy (RO) (TIM-3; 300 mg flat dose TSR-022 in combination with 500 mg flat dose TSR-042, FIG. 11) | mean occupancy ratio (free TIM-3:total TIM-3) (TIM-3; 1, 3, 10 mg/kg and flat doses of 100, 300, 1200 mg, over a range of days, FIG. 12) | receptor occupancy on peripheral monocytes versus exposure (TIM-3; patients, whole blood, FIG. 6B) | day on which receptor occupancy is maximal (TIM-3; single dose on day 1, across doses 1, 3, 10 mg/kg, FIGS. 7A-7C)
1 | NC(=O)c1cccc2cn(-c3ccc([C@@H]4CCCNC4)cc3)nc12 [Niraparib, (3S)-3-[4-{7-(aminocarbonyl)-2H-indazol-2-yl}phenyl]piperidine] | ~4 nM | ~50 nM | – | – | – | – | – | – | – | – | – | – | – | – | – | –
2 | TSR-022: humanized monoclonal anti-TIM-3 IgG4 antibody, heavy chain SEQ ID NO: 3, light chain SEQ ID NO: 4, S228 Ser to Pro hinge mutation | – | – | a MTD has not yet been identified | well-tolerated across multiple dose levels | 5/25 | 1/25 | 32% | linear PK behavior | ≥ 29 days | comparable results are obtained | comparable to 3 mg/kg Q2W | achieved at 100 mg for the duration of the dosing interval | high RO can be maintained over the measured time period | high occupancy ratios | correlate with TSR-022 exposure | 3 days
